According to US20230052680A1:
One block for each binder: values may come before it.

How the values were obtained:
[1] = molecular target: human FGFR2b on cells (human) (UniProt P21802); experiment: flow cytometry on FGFR2b expressing KATOIII cells
[2] = molecular target: human FGFR2b (beta)-Fc (human) (UniProt P21802); experiment: SPR (Biacore T200); hFGFR2b-Fc amine-coupled to CM5 chip, antibody injected at 0-200 nM
[3] = molecular target: recombinant human FGFR2b-Fc (murine Fc) (human) (UniProt P21802); experiment: ELISA, plate coated with 0.1 ug/ml human FGFR2b-Fc, anti-human IgG HRP detection
[4] = molecular target: human FGFR2b (beta)-Fc (human) (UniProt P21802); experiment: surface plasmon resonance (Biacore T200), hFGFR2b-Fc amine-coupled to a CM5 chip, antibody injected
[5] = molecular target: human FGFR2b on cells (human) (UniProt P21802); experiment: flow cytometry on KATOIII cells; sample name as printed 'KATOIII_36C 01nM_023.fcs' (no decimal point printed)
[6] = molecular target: human FGFR2b on cells (human) (UniProt P21802); experiment: flow cytometry on KATOIII cells; sample name as printed 'KATOIII_36C 05nM_022.fcs' (no decimal point printed)
[7] = molecular target: human FGFR2b on cells (human) (UniProt P21802); experiment: flow cytometry on KATOIII cells; sample name as printed 'KATOIII_36C 0004nM_025.fcs' (no decimal point printed)
[8] = molecular target: human FGFR2b on cells (human) (UniProt P21802); experiment: flow cytometry on KATOIII cells; sample name as printed 'KATOIII_36C 002 nM_024.fcs' (no decimal point printed)
[9] = molecular target: human FGFR2b on cells (human) (UniProt P21802); experiment: flow cytometry on KATOIII cells; sample name as printed 'KATOIII_36C 00009nM_026.fcs' (no decimal point printed)
[10] = molecular target: human FGFR2b (beta)-Fc (human) (UniProt P21802); experiment: ELISA, plate coated with HuFGFR2b

- EC50 [1]: 8000 pM
- Kd [2]: 187 pM
- EC50 (read off the curve) [3]: 300 pM
- Kd [4]: 189 pM
- koff [4]: 2.44e-05 s⁻¹
- kon [4]: 129000 M⁻¹ s⁻¹
- Mean : FITC-A [5]: 455
- Mean : FITC-A [6]: 1800
- Mean : FITC-A [7]: 128
- Mean : FITC-A [8]: 199
- Mean : FITC-A [9]: 121
B1: Ab 36c (antibody, V domains shown)
VH: QPYLQQSGAELVRPGASVKMSCKASGYTFTSYNMHWVKQTPRQGLEWIGAIFPENGDTSYNQKFKGKATLTVDKSSSTAYMQLSSLTSEDSAVYFCARGGFDYWGQGTTLTVSS
VL: DIVMTQSHKFMSTSVGDRVSITCKASQDVSTNVAWYQQKPGQSPKLLIFSASYRYTGVPDRFAGSGSGTDFTFTISSVQAEDLAVYYCQQHYSSPYTFGGGTKLDIK

- EC50 (read off the curve) [10]: 200 pM
B2: Ab 36 (antibody, V domains shown)
VH: B1 VH
VL: B1 VL

- Kd [2]: 189 pM
- Kd [4]: 187 pM
- koff [4]: 2.39e-05 s⁻¹
- kon [4]: 128000 M⁻¹ s⁻¹
B3: Ab hu36-2 (antibody, human IgG1, V domains shown)
VH: QVQLVQSGAEVKKPGSSVKVSCKASGYTFTSYNMHWVRQAPGQGLEWIGAIFPENGDTSYNQKFKGRATITADKSTSTAYMELSSLRSEDTAVYYCARGGFDYWGQGTTVTVSS
VL: DIQMTQSPSSLSASVGDRVTITCKASQDVSTNVAWYQQKPGKAPKLLIFSASYRYTGVPSRFSGSGSGTDFTFTISSLQPEDIATYYCQQHYSSPYTFGQGTKLEIK
